Assay results published in the supplement of paper PMC11780869.

System: Bacillus subtilis
Assay: cleaved RNA product abundance (RNA/gDNA barcode ratio) relative to median wild-type variant (ratio to wild type); higher = more accumulation of the downstream cleavage product
Summary of the method: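 Oligos with a 9% error rate were used to build barcoded, mutagenized RNase Y cleavage-site windows within truncated aprE or tetM reporter mRNAs, which were integrated into the B. subtilis chromosome. Cultures were grown in LB at 37°C between OD600 0.0003 and 0.3. Cleaved RNA was gel-selected, reverse transcribed and barcode-sequenced, as were genomic DNA barcodes, and UMIs were collapsed. Cleaved product abundance is the scaled RNA:gDNA barcode ratio, with the median construct carrying the unmutated site as reference.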

[1] = experiment (reporter, strain, medium): exp 8a: truncated aprE reporter, strain BJT201 with 2% xylose (RNase J1 expressed), cleavage site: glnRA (positions -5 to +31 mutated)
[2] = experiment (reporter, strain, medium): exp 2b: truncated aprE reporter, strain BJT200, cleavage site: cggR-gapA (positions -7 to +36 mutated)
[3] = experiment (reporter, strain, medium): exp 4a: truncated aprE reporter, strain BJT201 with 2% xylose (RNase J1 expressed), cleavage site: cggR-gapA (positions -7 to +36 mutated)

Row | Sequence | cleaved RNA product abundance [1] | cleaved RNA product abundance [3] | further results
1 | CGACATGTCCCGCTTCTTTCATTAATCCGTTAGCAACTATTTTGCTATATACATCTACCTTTTAAGAGGAGGAAT | 0.944 | – | –
2 | ACAGACGAAGGAGCCGCAAAGAAGTTATTAAGTGATGAATAATCCCTTAATATAAATATCTCTCACTTATTTAAA | – | 0.388 | cleaved RNA product abundance [2]: 0.6
3 | ACAGACGAAGGAGCCGCAAAGAAGTTATTAAGGGATAAACAATCCCTCAATATAAATATCTCTCACTTATTTAAA | – | 0.798 | cleaved RNA product abundance [2]: 0.787
4 | ACAGACGAAGGAGCCGCAATGAAGTTATTAAGGGATGAATAATCCCTCAATATGAATATCTCTCACTTATTTAAA | – | 0.141 | –
5 | ACAGACGAAGGAGCCGCAAAGAAGTTATTAAGGTATGTATAATCCCTCAATATAAATATCTCTCACTTATTTAAA | – | 0.127 | cleaved RNA product abundance [2]: 0.108
6 | ACAGACGAAGGAGCCGCAATGAAGTTATTAAGGGATGAATAATCCATCAATATAAATATCTCTCACTTATTTAAA | – | 0.251 | –
7 | ACAGACGAAGGAGCCGCAAAGACGTTATTAAGGTATGAATAATCCCTCAATATAAATATCTCTCACTTATTTAAA | – | 0.153 | cleaved RNA product abundance [2]: 0.0832
8 | CGACATGTCCCGCTTCTTTCATTAATCCGTTAGAATCTGTTTTGCTATATACATTTACCTTTTAAGAGGAGGAAT | 0.239 | – | –
9 | ACAGACGAAGGAGCCGCAAAGATGTTATTAAGGGATGAATAATCCTTCAATATAAATATCTCTCACTTATTTAAA | – | 0.613 | cleaved RNA product abundance [2]: 0.366
10 | CGACATGTCCCGCTTCTTTCATTAATCCGTTAGAAACTGTTTTGCTATATACACTTACCTTTTAAGAGGAGGAAT | 0.157 | – | –
11 | CGACATGTCCCGCTTCTTTCATTAAACCGTTAGCAACTGTTTTGCTATATACATTTACCATTTAAGAGGAGGAAT | 1.29 | – | –
12 | CGACATGTCCCGCTTCTTTCATTAATCCGTTAGCAACTGTTTTGTTATATACATTTAGCTTTTAAGAGGAGGAAT | 0.257 | – | –
13 | CGACATGTCCCGCTTCTTTCATTAATCCGTTAGCAACTGTTTTCCTATAAACATTTACCTTTTAAGAGGAGGAAT | 0.526 | – | –
14 | ACAGACGAAGGAGCCGCAAAGTAGTTATTAAGGGATAAATAATCCCTCAATATAAATATCTCTCACTTATTTAAA | – | 0.9 | –
15 | CGACATGTCCCGCTTCTTTCATTAATCAGTTAGCAACTGTTTTCCTATATACATTTACCTTTTAAGAGGAGGAAT | 0.433 | – | –
16 | CGACATGTCCCGCTTCTTTCATTAATCCGTTTGCAATTGTTTTGCTATATACATTTACCTTTTAAGAGGAGGAAT | 0.536 | – | –

Row | Sequence | cleaved RNA product abundance [1] | cleaved RNA product abundance [3] | further results
17 | CGACATGTCCCGCTTCTTTCATTAATCAGTTAGCAACTGTTGTGCTATATACATTTACCTTTTAAGAGGAGGAAT | 0.354 | – | –
18 | ACAGACGAAGGAGCCGCAAAGAAGTTATTAAGAGATGAATAATCCCTCAAGATAAATATCTCTCACTTATTTAAA | – | 0.112 | –
19 | ACAGACGAAGGAGCCGCAAAGAAGTTATTAAGGGATGAATAATCCCTCAATATAAATATCTCTCACTTATTTAAA | – | – | cleaved RNA product abundance (experiment (reporter, strain, medium): exp 6: tetM reporter, strain 168, cleavage site: cggR-gapA (positions -7 to +36 mutated)): 1.06
20 | ACAGACGAAGGAGCCGCAAAGAAGTTATTAAGGTATGAATCATCCCTCAATATAAATATCTCTCACTTATTTAAA | – | 0.176 | –
21 | ACAGACGAAGGAGCCGCAAAAAAGTTATTAAGGGATGAACAATCCCTCAATATAAATATCTCTCACTTATTTAAA | – | 0.764 | cleaved RNA product abundance [2]: 0.87
22 | ACAGACGAAGGAGCCGCACAGAAGTTATTAATGGATGAATAATCCCTCAATATAAATATCTCTCACTTATTTAAA | – | 0.165 | cleaved RNA product abundance [2]: 0.103
23 | CGACATGTCCCGCTTCTTTCATTAATCCGTTAGCTACTGTTTTGCTATATGCATTTACCTTTTAAGAGGAGGAAT | 0.368 | – | –
24 | CGACATGTCCCGCTTCTTTCATTAATCCGTTAACAACTGTTTTGCTAAATACATTTACCTTTTAAGAGGAGGAAT | 0.202 | – | –
25 | CGACATGTCCCGCTTCTTTCATTACTCCGTTAGCAACTGTTTTGCTATATACATTTACATTTTAAGAGGAGGAAT | 1.39 | – | –
26 | ACAGACGAAGGAGCCGCAAAGAAGTTGTTAAGGGCTGAATAATCCCTCAATATAAATATCTCTCACTTATTTAAA | – | 0.198 | –
27 | ACAGACGAAGGAGCCGCAAAGAAGTTATTAAGGCTTGAATAATCCCTCAATATAAATATCTCTCACTTATTTAAA | – | 0.11 | cleaved RNA product abundance [2]: 0.115
28 | ACAGACGAAGGAGCCGCAAAGAAGTTATTAAGGGATGAATAATCCCACAATATAAACATCTCTCACTTATTTAAA | – | 0.277 | –
29 | ACAGACGAAGGAGCCGCAAAGAAGTTATTAAGGGAAGAATAATCCCTCAATATAAATTTCTCTCACTTATTTAAA | – | – | cleaved RNA product abundance [2]: 0.471
30 | CGACATGTCCCGCTTCTTTCATTAATCCGTTAGAAACTGTTTTGCTGTATACATTCATCTTTTAAGAGGAGGAAT | 0.0887 | – | –
31 | CGACATGTCCCGCTTCTTTCATTATTCCATTAGCAATTGTTTTGCTATATACATTTACCTTTTAAGAGGAGGAAT | 1.33 | – | –
